T1: CD27 protein (His-tagged, Sino Biological Inc. 10039-H08B1) (human, UniProt P26842 20-192)
T1 construct: bought; coated onto ELISA plates; also called human CD27; recombinant protein; not shown: His tag
T1 sequence (looked up): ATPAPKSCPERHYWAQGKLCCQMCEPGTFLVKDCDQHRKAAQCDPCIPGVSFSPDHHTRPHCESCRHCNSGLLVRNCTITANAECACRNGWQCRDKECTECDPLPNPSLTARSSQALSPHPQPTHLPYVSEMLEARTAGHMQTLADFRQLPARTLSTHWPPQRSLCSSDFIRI

T2: CD27 expressed on the cell surface (HT1080_CD27 cells) (human, UniProt P26842 20-260)
T2 sequence (looked up): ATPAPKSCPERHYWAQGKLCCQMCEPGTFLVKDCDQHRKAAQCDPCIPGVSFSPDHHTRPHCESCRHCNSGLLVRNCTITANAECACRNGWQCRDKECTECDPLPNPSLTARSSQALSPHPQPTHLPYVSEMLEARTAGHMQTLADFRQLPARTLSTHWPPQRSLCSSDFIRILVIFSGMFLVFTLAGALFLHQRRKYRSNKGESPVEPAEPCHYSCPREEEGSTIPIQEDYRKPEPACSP

B1: P018.S.04.A.H04 (antibody, V domains shown)
VH: QSVEESGGRLVTPGTPLTLTCTVSRFSLSTSTMTWVRQAPGKGLEWIGIINGGGSAYYANWAKGRFTISKTSTTVDLKITSPTTEDTATYFCARSYDSYDDIYGTSRLYAFDPWGPGTLVTVSS
VL: AYDMTQTPASVEVAVGGTVTINCQASESIYSNLAWYQQKPGQPPKLLIYRASYLASGVSSRFKGSGSGTQFTLTISGVESADAATYYCQQGYSSSDVDNAFGGGTEVVVK
notes: V regions on human Ig constant parts; also called AB27_79
B2: P018.S.04.A.F04 (antibody, V domains shown)
VH: QSVEESGGRLVTPGTPLTLTCTVSGFSLSNYAMSWVRQAPGKGLEWIGIIYASGTTYYARWAKGRFTISRTSTTVDLKISSPTTEDTATYFCAREYDSYDYAYGSSIYAFDPWGPGTLVTVSS
VL: B1 VL with A9S, E12S, V13A, N22K, P43R, Y53T, T74S, D96N, A100V
notes: V regions on human Ig constant parts; also called AB27_77
B3: P018.S.03.A.C02 (antibody, V domains shown)
VH: B1 VH
VL: B1 VL with A14V, N22S, S31A, D96N, A100S
notes: V regions on human Ig constant parts; also called AB27_44
B4: P018.S.07.A.B03 (antibody, V domains shown)
VH: QSVEESGGRLVTPGTPLTLTCTVSGFSLSSYAMGWVRQAPGKGLEWIGDIYGSGSTYYASWAKGRFTFSRTSTTVDLKMTSLTTEDTATYFCARSKGYNYNLWNLWGQGTLVTVSS
VL: DIVMTQTPSSVSAAVGGTVTINCQASQNIYTNLAWYQQKPGQRPKLLIYDASDLASGVPSRFSGSGSGTEYTLTISDLESADAATYYCQTYSYSGSSSANPFGGGTEVVVK
notes: V regions on human Ig constant parts; also called AB27_115
B5: P018.S.01.A.B04 (antibody, V domains shown)
VH: QEQLEESGGRLVTPGGTLTLTCTASGFSLSSYDMSWVRQAPGKGLEWIGYIWSDGNTDYASWAAGRFTASRASTTVDLKMTSLTTEDTATYFCARGYTGFFLWGPGTLVTVSS
VL: DVVMTQTPSSVSAAVGGTVTIKCQASQSIGSSYLSWYQQKPGQPPKLLIYKTSTLASGVPSRFKGSGSGTEFTLTISDLESDDAATYYCQCTYYGGSWRVAFGGGTEVVVK
notes: V regions on human Ig constant parts; also called AB27_5
B6: P018.S.01.A.B05 (antibody, V domains shown)
VH: B5 VH with S61T
VL: B5 VL with G96S
notes: V regions on human Ig constant parts; also called AB27_6
B7: P018.S.01.A.G02 (antibody, V domains shown)
VH: B5 VH with S61T
VL: B5 VL
notes: V regions on human Ig constant parts; also called AB27_21
B8: P018.S.05.A.H02 (antibody, V domains shown)
VH: B5 VH with S30N
VL: B5 VL with K51E, T52A
notes: V regions on human Ig constant parts; also called AB27_94
B9: P018.S.01.A.D04 (antibody, V domains shown)
VH: B5 VH with S31N
VL: B5 VL with A13T, G17D
notes: V regions on human Ig constant parts; also called AB27_12
B10: P018.S.02.A.C06 (antibody, V domains shown)
VH: QEQLEESGGGLVQPEGSLTLTCKASGIDFSSNYYISWVRQAPGKGLEWIGCIYTGSDDAAYYASWAKGRFTISKTSSTTVTLQMTSLTAADTATYFCAREILYPTNTDSFDLWGPGTLVTVSS
VL: AQVLTQTPSSVSEPVGGIVTINCQASESISSRLAWYQQKPGQPPKLLIYRAATLASGVPSRFKGSGSGTDFTLTISDLESADAATYYCQSYVGASSGGYFFGGGTEVVVK
notes: V regions on human Ig constant parts; also called AB27_32
B11: P018.S.03.A.H05 (antibody, V domains shown)
VH: QSLEESGGDLVKPGASLTLTCTASGFSFSDRHYMCWVRQAPGKGLEWIGSIYTGKDSIDYASWAKGRFTISKTSSTTVTLQMTSLTAADTATYFCARDLLYGSSSGYLHTWGPGTLVTVSS
VL: DIVMTQTPSSVSEPVGGTVTIKCQASHNIYSNLAWYQQKLGQPPKLLIYYASTLASGVPSRFKGSGSGTEYTLTISDLESDDAATYYCQSAYYGSIDITFGGGTEVVAQ
notes: V regions on human Ig constant parts; also called AB27_63
B12: P018.S.02.A.G03 (antibody, V domains shown)
VH: QSVEESGGRLVTPGTPLTLTCTVSGFSLSSYVMSWVRQAPGKGLEWIGYIDYGGTAYYASWAKGRFTISKTSTTVELKITSPTIEDTATYFCARGGYGGYILVTGLWGPGTLVTVSS
VL: DIVMTQTPASVSEPVGGTVTIKCQASQTIISYLSWYQQKPGQPPKLLIYGASTLASGVPSRFKGSGSVTEYTLTISDLESADAATYYCQTYYGGGPFGNGFGGGTEVVVK
notes: V regions on human Ig constant parts; also called AB27_38
B13: P018.S.09.A.H04 (antibody, V domains shown)
VH: B12 VH with I50S, S60N, G98D, I101L
VL: B12 VL with T28S, I30S, S34A, G50S, P59S, V68G
notes: V regions on human Ig constant parts; also called AB27_161
B14: P018.S.02.A.F06 (antibody, V domains shown)
VH: B12 VH with A56P
VL: B12 VL with I2V, T28S, I30S, L33C, K39R, V68G
notes: V regions on human Ig constant parts; also called AB27_36
B15: P018.S.03.A.H04 (antibody, V domains shown)
VH: QSLEESGGRLVTPGTPLTLTCTASGFSLSNYSMNWVRQAPGKGLEWIGIINTYGSAYYASWAKGRFTISKTSTTVDLKMTSLTTEDTATYFCARDAGGSTVPWFFDVWGPGTLVTVSS
VL: AYDMTQTPASVEVAVGGTVTIKCQASQTISNYLAWYQQKPGQRPKLLIYDASKLASGVPSRFDGSGSGTEYTLTISGVGSADAATYYCQQGYADSNVDNVFGGGTEVVVK
notes: V regions on human Ig constant parts; also called AB27_62
B16: P018.S.07.A.B06 (antibody, V domains shown)
VH: QEQLVESGGDLVKPGTSLTLTCKASGLDFSSTPYMCWVRQAPGKGLEWIACIYTGSVIYTYYASWAKDRFTISKISSTSVTLQMTSLTVADTATYFCARSPAGYAAYGYGGFNLWGPGTLVTVSS
VL: AIEMTQTPFSVSAAVGGTVTINCQASQNIYNNLAWYQQKPGQPPKLLIYGASTLESGVPSRFEGSGSGTEYTLTISDLESDDAATYYCQSAYYSSSATDMAFGGGTEVVVK
notes: V regions on human Ig constant parts; also called AB27_118
B17: P018.S.05.A.E04 (antibody, V domains shown)
VH: QEQLEESGGDLVKPEGSLTLTCTASGFSFSSYWICWVRQAPGKGLEWIACIATHSGTDFYASWAKGRFTISKTSSTTVTLQMTSLTAADTATYFCARDPYGFNGDYFSLWGPGTLVTVSS
VL: ALVMTQTPASVSAAVGGTVTINCQASQSVYNSNYLSWYQQKPGQPPKLLIYKASTLASGVPSRFKGSGSGTQFTLTISGVESDDAATYYCAGYKSYTNDDNGFGGGTEVVVK
notes: V regions on human Ig constant parts; also called AB27_90

Residue numbers refer to the chain shown, from its start. In names and notes the source's numbering stands.
Also: test concentration or dose not given here.

In the first assay the target is T1, CD27 protein (His-tagged, Sino …). In words: ELISA on coated His-tagged CD27. (ELISA stands for enzyme-linked immunosorbent assay.)
For the molecule B1, the “ELISA [abs. corr.]” value stood at 3.46 abs. corr.
Take B2: the “ELISA [abs. corr.]” value was determined as 3.35 abs. corr.
With B3, the “ELISA [abs. corr.]” value stood at 3.36 abs. corr.
For B4, the “ELISA [abs. corr.]” value was 3.37 abs. corr.
Consider B5, for which the “ELISA [abs. corr.]” value is 3.36 abs. corr.
Consider B6, for which the “ELISA [abs. corr.]” value was 3.5 abs. corr.
For the molecule B7, the “ELISA [abs. corr.]” value was found to be 3.67 abs. corr.
Turning to B8, the “ELISA [abs. corr.]” value was found to be 3.47 abs. corr.
Turning to B9, the “ELISA [abs. corr.]” value is 3.4 abs. corr.
B10: the “ELISA [abs. corr.]” value was 3.37 abs. corr.
On to B11, for which the “ELISA [abs. corr.]” value turned out to be 3.36 abs. corr.
Take B12: the “ELISA [abs. corr.]” value is 3.13 abs. corr.
Regarding B13, the “ELISA [abs. corr.]” value was found to be 3.36 abs. corr.
On the same count and under the same terms, then B14, with 3.24 abs. corr; and B15, with 3.59 abs. corr; and B16, with 3.35 abs. corr.
B17: the “ELISA [abs. corr.]” value is 3.35 abs. corr.

Another assay has as its target T2, CD27 expressed on the cell surface …. In words: cell-based or functional assay.
On to B1, for which the “IL-8, cross-linked by F(ab')2 fragment [abs. corr.]” value (from here on “IL-8, cross-linked”) turned out to be 1.98 abs. corr and the “IL-8 [abs. corr.]” value was found to be 0.579 abs. corr.
As to B2, the “IL-8, cross-linked” value came to 2.49 abs. corr and the “IL-8 [abs. corr.]” value was 1.6 abs. corr.
Turning to B3, the “IL-8, cross-linked” value was found to be 1.58 abs. corr and the “IL-8 [abs. corr.]” value was 0.373 abs. corr.
B4: the “IL-8, cross-linked” value was determined as 1.34 abs. corr and the “IL-8 [abs. corr.]” value was 0.612 abs. corr.
As for B5, the “IL-8, cross-linked” value came out at 2.12 abs. corr and the “IL-8 [abs. corr.]” value was determined as 0.582 abs. corr.
As to B6, the “IL-8, cross-linked” value was 1.88 abs. corr and the “IL-8 [abs. corr.]” value was found to be 0.453 abs. corr.
For the molecule B7, the “IL-8, cross-linked” value was 1.88 abs. corr and the “IL-8 [abs. corr.]” value is 0.848 abs. corr.
In the case of B8, the “IL-8, cross-linked” value came out at 1.9 abs. corr and the “IL-8 [abs. corr.]” value came to 0.369 abs. corr.
On to B9, for which the “IL-8, cross-linked” value is 2.2 abs. corr and the “IL-8 [abs. corr.]” value worked out at 0.175 abs. corr.
For B10 the same measures were 1.59 abs. corr and 0.418 abs. corr.
B11: the “IL-8, cross-linked” value worked out at 1.39 abs. corr and the “IL-8 [abs. corr.]” value was determined as 0.401 abs. corr.
For the molecule B12, the “IL-8, cross-linked” value was found to be 1.48 abs. corr and the “IL-8 [abs. corr.]” value is -0.061 abs. corr.
Take B13: the “IL-8, cross-linked” value turned out to be 1.4 abs. corr and the “IL-8 [abs. corr.]” value came to 0.274 abs. corr.
As to B14, the “IL-8, cross-linked” value was 1.73 abs. corr and the “IL-8 [abs. corr.]” value was 0.094 abs. corr.
In the case of B15, the “IL-8, cross-linked” value was 1.23 abs. corr and the “IL-8 [abs. corr.]” value was 0.211 abs. corr.
B16: the “IL-8, cross-linked” value amounted to 1.07 abs. corr and the “IL-8 [abs. corr.]” value worked out at 0.218 abs. corr.
For B17, the “IL-8, cross-linked” value came out at 1.33 abs. corr and the “IL-8 [abs. corr.]” value came out at 0.813 abs. corr.

The target is the same in the next assay. Kind of assay: cellular binding assay, HT1080_CD27 cells.
For B1, the “Cellular binding assay [RFU]” value was 291 RFU.
Still for that read-out and setting: then B2, with 320 RFU.
For the molecule B3, the “Cellular binding assay [RFU]” value was found to be 317 RFU.
Regarding B4, the “Cellular binding assay [RFU]” value is 346 RFU.
The same measure, in the same setting: next, B5: 382 RFU; B6: 376 RFU.
For B7, the “Cellular binding assay [RFU]” value amounted to 363 RFU.
In the case of B8, the “Cellular binding assay [RFU]” value came out at 336 RFU.
Same read-out and setting: then B9, with 341 RFU.
Take B10: the “Cellular binding assay [RFU]” value was 348 RFU.
On the same count and under the same terms, then B11, with 294 RFU; and B12, with 357 RFU.
Consider B13, for which the “Cellular binding assay [RFU]” value worked out at 314 RFU.
Regarding B14, the “Cellular binding assay [RFU]” value stood at 294 RFU.
As to B15, the “Cellular binding assay [RFU]” value is 334 RFU.
As to B16, the “Cellular binding assay [RFU]” value came out at 372 RFU.
Take B17: the “Cellular binding assay [RFU]” value came out at 332 RFU.

Source of the values: patent US20210253725A1 (BIONTECH, published 2021).
